Assay [1] concerns the target hIL-15Rβ-mγc on 32Dβ cells (human | mouse (endogenous in 32D)) (UniProt P14784).
For assay [2], the target named is mouse IL-15 receptor complex (mIL-15Rα-mIL-15Rβ-mγc) on CTLL-2 cells (mouse) (UniProt Q60819).
The target in assay [3] is hIL-15Rα-hIL-15Rβ-hγc complex on TF-1β cells (human (endogenous in TF-1) | human) (UniProt Q13261).
For assay [4], the target named is hIL-15Rβ-mγc on 32Dβ cells (human | mouse (endogenous in 32D)) (UniProt P14784). The source holds these as a separate data set.
Sequence of hIL-15Rβ-mγc on 32Dβ cells (human | mouse (endogenous in 32D)) (P14784 27-551, chain 1 of 2): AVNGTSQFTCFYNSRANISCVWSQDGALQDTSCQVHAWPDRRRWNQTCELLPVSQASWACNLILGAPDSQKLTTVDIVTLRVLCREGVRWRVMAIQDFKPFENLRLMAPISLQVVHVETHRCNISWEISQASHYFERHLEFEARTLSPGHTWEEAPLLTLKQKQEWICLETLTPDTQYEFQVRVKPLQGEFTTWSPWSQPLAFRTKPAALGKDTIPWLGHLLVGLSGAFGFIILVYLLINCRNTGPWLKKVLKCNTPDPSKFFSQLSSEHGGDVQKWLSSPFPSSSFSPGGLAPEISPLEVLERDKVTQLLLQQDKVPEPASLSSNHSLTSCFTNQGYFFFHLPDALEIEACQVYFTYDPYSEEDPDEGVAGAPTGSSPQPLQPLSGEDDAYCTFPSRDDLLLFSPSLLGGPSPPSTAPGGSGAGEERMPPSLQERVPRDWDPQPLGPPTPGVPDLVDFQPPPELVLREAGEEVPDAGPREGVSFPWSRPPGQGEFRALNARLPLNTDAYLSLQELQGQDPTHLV
Sequence of hIL-15Rβ-mγc on 32Dβ cells (human | mouse (endogenous in 32D)) (P34902 23-369, chain 2 of 2, further chain): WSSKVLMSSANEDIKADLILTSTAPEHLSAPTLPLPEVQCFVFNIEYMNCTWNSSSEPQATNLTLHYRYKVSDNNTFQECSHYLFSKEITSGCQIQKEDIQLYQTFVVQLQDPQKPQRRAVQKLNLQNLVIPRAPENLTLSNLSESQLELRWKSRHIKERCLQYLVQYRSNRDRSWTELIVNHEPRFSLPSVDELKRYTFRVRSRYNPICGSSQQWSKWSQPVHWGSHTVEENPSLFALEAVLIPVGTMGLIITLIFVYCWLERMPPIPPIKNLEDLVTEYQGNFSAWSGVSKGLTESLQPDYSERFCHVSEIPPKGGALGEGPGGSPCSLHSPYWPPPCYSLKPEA
Assay [5] shares this target. This is another data set of the same source.
For assay [6], the target named is hIL-15Rα and hγc on TF-1 cells (human (endogenous in TF-1)) (UniProt Q13261). The experiment in a line: flow cytometry on cells. On the technique in general: A flow cytometer gives signals particle by particle.
A further assay concerns the target recombinant human IL-15 (human, UniProt P40933 49-162). The experiment in a line: ELISA.
Assay [7] deals with c264scTCR/hIL-15 fusion protein (human, UniProt P40933 49-162). Description: ELISA. For orientation: In an ELISA, binding on a coated surface is turned into a signal by an enzyme label.

Here are results for three molecules from publication PMC2814526 (Journal of immunology (Baltimore, Md. : 1950), 2009).

Sequence of mouse IL-15 receptor complex (mIL-15Rα-mIL-15Rβ-mγc) on CTLL-2 cells (mouse) (Q60819 33-263, chain 1 of 3): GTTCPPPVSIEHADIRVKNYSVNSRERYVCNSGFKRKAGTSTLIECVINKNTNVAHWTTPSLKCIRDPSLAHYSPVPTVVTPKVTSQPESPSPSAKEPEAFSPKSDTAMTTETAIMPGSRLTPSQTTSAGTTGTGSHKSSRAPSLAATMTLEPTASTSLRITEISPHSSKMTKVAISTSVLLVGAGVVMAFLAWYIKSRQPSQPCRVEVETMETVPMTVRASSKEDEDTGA
Sequence of mouse IL-15 receptor complex (mIL-15Rα-mIL-15Rβ-mγc) on CTLL-2 cells (mouse) (P16297 27-539, chain 2 of 3, further chain): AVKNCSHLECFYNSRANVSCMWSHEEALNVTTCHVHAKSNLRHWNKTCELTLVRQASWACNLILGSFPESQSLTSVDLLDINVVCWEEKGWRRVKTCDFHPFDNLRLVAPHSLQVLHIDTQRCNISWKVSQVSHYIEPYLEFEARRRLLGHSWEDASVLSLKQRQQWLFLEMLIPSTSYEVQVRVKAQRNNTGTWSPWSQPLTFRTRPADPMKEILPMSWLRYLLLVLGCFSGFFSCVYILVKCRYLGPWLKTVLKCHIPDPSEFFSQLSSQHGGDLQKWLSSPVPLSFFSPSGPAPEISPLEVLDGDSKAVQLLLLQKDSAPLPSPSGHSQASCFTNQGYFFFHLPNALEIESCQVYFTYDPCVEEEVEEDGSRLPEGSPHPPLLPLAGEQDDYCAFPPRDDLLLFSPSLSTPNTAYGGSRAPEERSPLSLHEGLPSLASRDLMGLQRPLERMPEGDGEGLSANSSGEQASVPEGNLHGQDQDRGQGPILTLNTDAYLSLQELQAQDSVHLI
Sequence of mouse IL-15 receptor complex (mIL-15Rα-mIL-15Rβ-mγc) on CTLL-2 cells (mouse) (P34902 23-369, chain 3 of 3, further chain): as the sequence (P34902 23-369, chain 2 of 2, further chain) above

In turn, “c264scTCR/hIL-15N72D fusion protein (ligand)” gave an EC50 of 32Dβ cell proliferation (WST-1, 48 h) in assay [1] of 0.079 nM. The molecule further returned an EC50 of CTLL-2 cell proliferation (WST-1, 48 h) in assay [2] of 0.0184 nM.
Molecule “recombinant human IL-15 N72D mutein (ligand)” showed an EC50 of TF-1β cell proliferation (WST-1, 48 h) in assay [3] of 0.0048 nM. Further, in assay [1], the EC50 of 32Dβ cell proliferation (WST-1, 48 h) was determined as 0.0399 nM. The molecule also registered an EC50 of CTLL-2 cell proliferation (WST-1, 48 h) in assay [2] of 0.0092 nM. For the same molecule, in assay [4], the EC50 on 32Dβ cell proliferation, rhIL-15N72D alone came out at 0.0162 nM. For the same molecule, in assay [5], the EC50 of the decrease in apoptosis of 32Dβ cells (Annexin V, 48 h) worked out at 0.0078 nM. Also, in assay [6], the IC50 (usually the concentration that inhibits the measured activity by half) was 0.0175 nM.

B1: c264scTCR/hIL-15RαSu fusion protein (domain or fragment, human, UniProt Q13261 31-95, looked up)
chain: ITCPPPMSVEHADIWVKSYSLYSRERYICNSGFKRKAGTSSLTECVLNKATNVAHWTTPSLKCIR
For B1, the binding result (with recombinant human IL-15; in assay [7]) was “binds” in each case.
